Test results from the supplement of paper PMC10065799, “High-throughput profiling of sequence recognition by tyrosine kinases and SH2 domains using bacterial peptide display” (eLife, 2023).

Tests used:
SHP2-C SH2 = assay: SH2 binding enrichment of the phosphorylated peptide, bacterial display (enrichment ratio); higher = better substrate or ligand; peptides without Tyr show the background
c-Src SH2 = assay: as above
Grb2 SH2 = Grb2 SH2 (UniProt P62993); assay: as above
EPHB1 = EPHB1 (UniProt P54762); assay: phosphorylation enrichment, bacterial display (enrichment ratio); higher = better substrate or ligand; peptides without Tyr show the background
Fes = Fes (UniProt P07332); assay: as above
FGFR3 = FGFR3 (UniProt P22607); assay: as above
Fyn = Fyn (UniProt P06241); assay: as above
MERTK = MERTK (UniProt Q12866); assay: as above
AncSZ = assay: as above
FGFR1 = FGFR1 (UniProt P11362); assay: as above
Hck = Hck (UniProt P08631); assay: as above
c-Abl (mouse) = assay: as above
c-Src = assay: as above
Jak2 = Jak2 (UniProt O60674); assay: as above
Fer (mouse) = assay: as above
EPHB2 = EPHB2 (UniProt P29323); assay: as above
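Wherever SH2 binding enrichment of the phosphorylated peptide, bacterial display is given: peptide library displayed on the E. coli surface as eCPX fusions, selected cells deep-sequenced, score is each peptide's frequency after selection divided by its frequency in the input.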
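Wherever phosphorylation enrichment, bacterial display is given: 11-residue human phosphosite peptides and single-mutation variants displayed on the E. coli surface, counted by deep sequencing, each peptide's frequency after selection divided by its frequency in the unselected input library; frequency after pTyr selection over input frequency; kinase dosed for 20-30% of maximal phosphorylation in three min.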

Sequence of Fes (P07332 whole entry, looked up): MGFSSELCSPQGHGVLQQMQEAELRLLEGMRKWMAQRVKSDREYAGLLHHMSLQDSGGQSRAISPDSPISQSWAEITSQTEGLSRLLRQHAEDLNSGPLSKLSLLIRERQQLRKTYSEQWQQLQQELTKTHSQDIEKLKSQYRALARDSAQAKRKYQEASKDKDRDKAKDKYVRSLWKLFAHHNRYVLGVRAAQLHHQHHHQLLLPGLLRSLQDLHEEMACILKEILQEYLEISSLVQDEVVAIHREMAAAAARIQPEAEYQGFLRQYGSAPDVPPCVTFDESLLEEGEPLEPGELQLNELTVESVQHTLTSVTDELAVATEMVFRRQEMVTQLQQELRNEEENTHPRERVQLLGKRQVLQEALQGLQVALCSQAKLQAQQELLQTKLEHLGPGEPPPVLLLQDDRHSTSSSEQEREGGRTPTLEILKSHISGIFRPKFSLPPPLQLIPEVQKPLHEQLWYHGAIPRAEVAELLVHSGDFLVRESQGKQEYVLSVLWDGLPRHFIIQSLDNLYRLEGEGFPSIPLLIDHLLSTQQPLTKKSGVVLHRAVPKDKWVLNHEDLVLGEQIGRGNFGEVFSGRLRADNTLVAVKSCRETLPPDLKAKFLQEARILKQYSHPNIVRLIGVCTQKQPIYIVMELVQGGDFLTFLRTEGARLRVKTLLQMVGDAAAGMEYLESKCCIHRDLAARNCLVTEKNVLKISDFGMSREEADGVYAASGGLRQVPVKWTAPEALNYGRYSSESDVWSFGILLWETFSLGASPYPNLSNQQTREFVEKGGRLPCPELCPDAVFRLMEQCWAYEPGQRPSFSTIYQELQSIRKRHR
Sequence of FGFR3 (P22607 whole entry, looked up): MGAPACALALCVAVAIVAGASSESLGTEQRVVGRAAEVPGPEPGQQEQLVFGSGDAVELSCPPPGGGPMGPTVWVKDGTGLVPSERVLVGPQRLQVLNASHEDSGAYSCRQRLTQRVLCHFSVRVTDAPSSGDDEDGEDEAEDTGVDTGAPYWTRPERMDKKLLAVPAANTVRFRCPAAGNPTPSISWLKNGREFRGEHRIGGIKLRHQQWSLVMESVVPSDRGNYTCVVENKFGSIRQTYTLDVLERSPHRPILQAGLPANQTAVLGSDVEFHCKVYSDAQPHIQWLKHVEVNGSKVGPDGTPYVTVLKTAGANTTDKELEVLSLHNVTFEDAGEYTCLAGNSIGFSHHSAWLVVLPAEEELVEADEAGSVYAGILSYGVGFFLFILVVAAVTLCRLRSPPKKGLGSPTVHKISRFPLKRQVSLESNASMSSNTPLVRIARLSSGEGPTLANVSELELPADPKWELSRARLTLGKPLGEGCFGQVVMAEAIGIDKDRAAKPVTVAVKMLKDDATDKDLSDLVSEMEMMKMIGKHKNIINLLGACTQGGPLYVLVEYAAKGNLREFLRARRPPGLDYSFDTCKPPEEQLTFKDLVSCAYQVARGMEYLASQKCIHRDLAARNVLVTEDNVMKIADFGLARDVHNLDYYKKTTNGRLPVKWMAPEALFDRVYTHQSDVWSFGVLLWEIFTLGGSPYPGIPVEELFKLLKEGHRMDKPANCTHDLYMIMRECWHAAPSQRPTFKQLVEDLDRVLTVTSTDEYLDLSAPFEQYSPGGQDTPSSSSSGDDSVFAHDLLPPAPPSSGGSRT
Sequence of Hck (P08631 whole entry, looked up): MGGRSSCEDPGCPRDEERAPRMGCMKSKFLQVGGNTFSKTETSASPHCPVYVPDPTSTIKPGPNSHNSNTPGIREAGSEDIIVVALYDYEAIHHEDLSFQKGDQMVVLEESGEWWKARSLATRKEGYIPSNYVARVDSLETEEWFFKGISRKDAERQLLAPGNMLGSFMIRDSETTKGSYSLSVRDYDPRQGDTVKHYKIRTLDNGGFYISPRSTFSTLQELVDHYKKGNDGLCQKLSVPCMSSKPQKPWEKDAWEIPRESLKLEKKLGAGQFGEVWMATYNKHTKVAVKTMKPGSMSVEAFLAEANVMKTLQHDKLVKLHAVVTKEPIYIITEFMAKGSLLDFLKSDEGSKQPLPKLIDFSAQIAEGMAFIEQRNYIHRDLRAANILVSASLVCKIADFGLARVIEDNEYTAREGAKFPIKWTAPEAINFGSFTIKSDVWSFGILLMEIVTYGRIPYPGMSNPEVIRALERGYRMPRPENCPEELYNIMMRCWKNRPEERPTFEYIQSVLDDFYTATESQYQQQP
Sequence of FGFR1 (P11362 whole entry, looked up): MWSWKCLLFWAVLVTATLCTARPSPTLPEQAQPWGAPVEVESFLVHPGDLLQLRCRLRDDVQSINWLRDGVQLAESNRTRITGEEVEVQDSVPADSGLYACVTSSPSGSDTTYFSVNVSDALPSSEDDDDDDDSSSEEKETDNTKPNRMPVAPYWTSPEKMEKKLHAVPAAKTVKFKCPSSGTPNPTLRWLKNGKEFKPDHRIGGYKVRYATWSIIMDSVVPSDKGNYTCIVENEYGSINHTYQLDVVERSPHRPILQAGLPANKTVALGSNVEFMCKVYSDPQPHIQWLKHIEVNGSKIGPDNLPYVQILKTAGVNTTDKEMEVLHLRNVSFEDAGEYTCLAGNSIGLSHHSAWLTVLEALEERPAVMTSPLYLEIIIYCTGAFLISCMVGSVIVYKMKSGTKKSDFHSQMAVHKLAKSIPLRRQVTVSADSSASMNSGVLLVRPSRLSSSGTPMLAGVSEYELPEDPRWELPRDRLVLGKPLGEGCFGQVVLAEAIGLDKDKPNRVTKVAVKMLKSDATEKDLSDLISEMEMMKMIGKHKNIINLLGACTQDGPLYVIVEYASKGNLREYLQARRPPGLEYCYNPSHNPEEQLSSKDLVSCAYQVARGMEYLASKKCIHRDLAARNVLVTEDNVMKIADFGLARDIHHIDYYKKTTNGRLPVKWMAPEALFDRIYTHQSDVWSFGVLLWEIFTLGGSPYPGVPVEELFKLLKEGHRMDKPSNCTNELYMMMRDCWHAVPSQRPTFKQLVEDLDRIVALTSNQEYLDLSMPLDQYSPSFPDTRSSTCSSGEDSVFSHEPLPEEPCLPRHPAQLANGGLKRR
Sequence of EPHB2 (P29323 whole entry, looked up, the tested form may be a part): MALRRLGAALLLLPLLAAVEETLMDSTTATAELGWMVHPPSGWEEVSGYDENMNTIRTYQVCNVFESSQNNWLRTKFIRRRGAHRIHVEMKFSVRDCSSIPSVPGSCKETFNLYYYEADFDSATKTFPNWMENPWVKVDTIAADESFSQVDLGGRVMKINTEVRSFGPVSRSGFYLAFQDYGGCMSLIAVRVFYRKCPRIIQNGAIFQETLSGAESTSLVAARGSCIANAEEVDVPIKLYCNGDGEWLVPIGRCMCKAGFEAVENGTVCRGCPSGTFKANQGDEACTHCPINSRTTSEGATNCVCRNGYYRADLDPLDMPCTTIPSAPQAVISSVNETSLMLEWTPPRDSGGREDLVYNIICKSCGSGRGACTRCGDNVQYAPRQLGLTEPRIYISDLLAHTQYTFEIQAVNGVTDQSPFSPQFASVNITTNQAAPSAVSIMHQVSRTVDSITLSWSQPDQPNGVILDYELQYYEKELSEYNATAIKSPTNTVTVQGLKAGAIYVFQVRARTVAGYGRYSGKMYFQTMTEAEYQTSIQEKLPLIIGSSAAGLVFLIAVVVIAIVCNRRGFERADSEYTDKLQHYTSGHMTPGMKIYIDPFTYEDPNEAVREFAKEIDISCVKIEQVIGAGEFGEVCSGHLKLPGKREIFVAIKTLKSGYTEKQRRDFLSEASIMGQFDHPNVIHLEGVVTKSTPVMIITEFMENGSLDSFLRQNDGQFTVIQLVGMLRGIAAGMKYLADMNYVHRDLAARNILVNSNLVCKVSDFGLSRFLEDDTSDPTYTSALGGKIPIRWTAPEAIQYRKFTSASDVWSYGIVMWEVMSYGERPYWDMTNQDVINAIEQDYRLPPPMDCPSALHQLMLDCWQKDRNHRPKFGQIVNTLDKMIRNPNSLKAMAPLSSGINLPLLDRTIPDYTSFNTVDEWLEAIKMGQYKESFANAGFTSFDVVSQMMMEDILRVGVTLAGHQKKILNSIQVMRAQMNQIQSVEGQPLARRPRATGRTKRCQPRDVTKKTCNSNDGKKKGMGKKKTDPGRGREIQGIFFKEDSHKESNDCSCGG
Sequence of EPHB1 (P54762 whole entry, looked up): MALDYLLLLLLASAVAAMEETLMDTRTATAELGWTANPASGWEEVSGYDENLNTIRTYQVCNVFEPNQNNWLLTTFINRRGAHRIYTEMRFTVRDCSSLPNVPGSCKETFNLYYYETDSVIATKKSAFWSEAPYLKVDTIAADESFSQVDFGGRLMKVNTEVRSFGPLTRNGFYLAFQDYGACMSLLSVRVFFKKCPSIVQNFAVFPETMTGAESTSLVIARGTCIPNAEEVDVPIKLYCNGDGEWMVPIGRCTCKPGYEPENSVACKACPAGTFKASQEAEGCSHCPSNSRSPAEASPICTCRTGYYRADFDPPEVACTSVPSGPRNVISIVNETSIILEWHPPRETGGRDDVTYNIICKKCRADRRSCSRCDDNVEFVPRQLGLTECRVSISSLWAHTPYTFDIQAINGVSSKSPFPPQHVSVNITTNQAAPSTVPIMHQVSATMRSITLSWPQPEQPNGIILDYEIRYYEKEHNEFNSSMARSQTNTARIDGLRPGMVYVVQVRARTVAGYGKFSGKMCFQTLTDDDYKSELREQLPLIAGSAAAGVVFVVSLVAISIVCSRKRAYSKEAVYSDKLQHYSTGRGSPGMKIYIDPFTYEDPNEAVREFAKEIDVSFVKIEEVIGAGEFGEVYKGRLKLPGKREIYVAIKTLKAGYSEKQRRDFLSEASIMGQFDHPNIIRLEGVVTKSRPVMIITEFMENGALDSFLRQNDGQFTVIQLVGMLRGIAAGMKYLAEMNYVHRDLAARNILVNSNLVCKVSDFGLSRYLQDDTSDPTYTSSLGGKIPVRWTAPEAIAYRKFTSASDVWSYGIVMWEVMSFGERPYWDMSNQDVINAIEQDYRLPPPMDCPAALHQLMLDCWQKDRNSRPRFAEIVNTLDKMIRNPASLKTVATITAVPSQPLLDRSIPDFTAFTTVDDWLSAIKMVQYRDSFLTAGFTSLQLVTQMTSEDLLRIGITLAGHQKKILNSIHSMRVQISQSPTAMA

Row | SH2 binding enrichment (SHP2-C SH2) | SH2 binding enrichment (c-Src SH2) | SH2 binding enrichment (Grb2 SH2) | Sequence | phosphorylation enrichment (EPHB1) | phosphorylation enrichment (Fes) | phosphorylation enrichment (FGFR3) | phosphorylation enrichment (Fyn) | phosphorylation enrichment (MERTK) | phosphorylation enrichment (AncSZ) | phosphorylation enrichment (FGFR1) | phosphorylation enrichment (Hck) | phosphorylation enrichment (c-Abl (mouse)) | phosphorylation enrichment (c-Src) | phosphorylation enrichment (Jak2) | phosphorylation enrichment (Fer (mouse)) | phosphorylation enrichment (EPHB2)
1 | 0.27 | 0.479 | 0.941 | RGRKVYLEGGF [PRIM2_Y201_D204G] | 0.532 | 0.642 | 0.446 | 0.351 | 0.972 | 0.787 | 0.355 | 0.858 | 0.719 | 0.803 | 0.796 | 0.855 | 0.431
2 | 0.395 | 0.829 | 0.832 | ESDYPYSSSYE [SRPK2_Y427_T426P] | 0.589 | 1.18 | 0.789 | 0.593 | 0.513 | 1.19 | 0.668 | 0.581 | 0.481 | 0.784 | 0.71 | 0.499 | 0.649
3 | 0.773 | 0.676 | 0.903 | KTEMLYHLTAR [XRCC2_Y59] | 0.53 | 0.982 | 0.858 | 0.73 | 2.06 | 1.09 | 0.821 | 0.977 | 0.897 | 0.965 | 0.928 | 0.419 | 0.541
4 | 2.16 | 1.32 | 0.95 | HDRGNYVRLNM [RECQL4_Y353] | 2.3 | 1.3 | 0.943 | 0.993 | 0.837 | 0.944 | 0.711 | 0.765 | 0.929 | 0.592 | 1.09 | 0.671 | 1.35
5 | 0.605 | 1.73 | 0.732 | DPMNTYARPAE [SGMS2_Y24_T21M] | 0.381 | 0.883 | 0.542 | 0.434 | 0.46 | 0.878 | 0.475 | 0.576 | 0.792 | 0.538 | 0.771 | 0.504 | 0.476
6 | 0.922 | 0.682 | 0.959 | SENPKCPEVGD [TMEM43_Y233_Y233C] | 0.492 | 1.08 | 0.595 | 0.441 | 0.461 | 0.971 | 0.487 | 0.487 | 1.24 | 0.471 | 0.807 | 0.467 | 0.49
7 | 0.856 | 3.08 | 0.962 | SVVVPYEQPEV [TP53_Y220_P222Q] | 0.652 | 1.28 | 0.774 | 0.532 | 0.544 | 1.37 | 0.604 | 0.612 | 1.03 | 0.69 | 1.24 | 0.568 | 0.715
8 | 0.629 | 0.394 | 0.757 | PLFGEYFTLQI [TP53_Y327_D324Y_YF] | 2.69 | 2.8 | 12.5 | 6.77 | 1.13 | 4.62 | 16.9 | 4.51 | 4.41 | 8.29 | 12.9 | 1.49 | 2.42
9 | 0.729 | 0.499 | 0.801 | SEHLIYLEFKS [RASGRP1_Y215_T214I] | 1.58 | 1.46 | 1.77 | 6.74 | 0.875 | 1.44 | 1.61 | 5.08 | 6.39 | 5.64 | 1.2 | 0.69 | 1.04
10 | 0.61 | 0.83 | 0.728 | DRTVNYVLKCR [PLEKHG4_Y1068] | 0.668 | 1.17 | 0.778 | 0.515 | 0.357 | 1.15 | 0.517 | 0.688 | 0.764 | 0.43 | 0.898 | 0.566 | 0.67
11 | 0.498 | 0.437 | 0.852 | FNDSTYNQQLI [ZPLD1_Y198_YF] | 0.474 | 0.878 | 0.555 | 0.429 | 0.431 | 0.883 | 0.651 | 0.482 | 0.694 | 0.617 | 0.863 | 0.463 | 0.483
12 | 0.814 | 0.548 | 0.926 | FSIDFYRVGGH [NTRK2_Y707_T704I_YF] | 0.593 | 1.37 | 0.719 | 0.465 | 0.429 | 1.19 | 0.531 | 0.456 | 0.837 | 0.436 | 1.24 | 0.466 | 0.573
13 | 0.859 | 0.573 | 1.18 | KHMADYPDCKF [SOX11_Y113_Y116C_YF] | 0.532 | 1.04 | 0.74 | 0.423 | 0.456 | 0.92 | 0.587 | 0.475 | 0.703 | 0.397 | 0.879 | 0.495 | 0.556
14 | 0.687 | 0.993 | 0.779 | MSYDRYMAVCH [OR2A5_Y123_I126V] | 0.879 | 0.878 | 0.57 | 0.475 | 0.44 | 0.867 | 0.438 | 0.507 | 0.509 | 0.464 | 0.891 | 0.595 | 0.751
15 | 1.15 | 0.976 | 1.48 | PCNLIYFGEHP [TRPV6_Y201] | 1.17 | 2.64 | 1.68 | 3.66 | 2.21 | 3.19 | 1.76 | 2.08 | 2.89 | 12.2 | 3.44 | 1.07 | 0.745
16 | 0.856 | 0.465 | 0.788 | EREFKYGAHNH [OAT_Y50_Y55H_YF] | 0.474 | 0.545 | 0.368 | 0.307 | 0.439 | 0.524 | 0.336 | 0.29 | 0.44 | 0.319 | 0.376 | 0.441 | 0.228
17 | 0.705 | 0.526 | 0.79 | SNKELYEKFMI | 0.571 | 0.872 | 0.543 | 1.14 | 1.51 | 0.859 | 0.507 | 1.45 | 0.559 | 1.78 | 0.894 | 10.2 | 0.539

The next lines start with the sequence.

Row | Sequence | SH2 binding enrichment (SHP2-C SH2) | SH2 binding enrichment (c-Src SH2) | SH2 binding enrichment (Grb2 SH2) | phosphorylation enrichment (EPHB1) | phosphorylation enrichment (Fes) | phosphorylation enrichment (FGFR3) | phosphorylation enrichment (Fyn) | phosphorylation enrichment (MERTK) | phosphorylation enrichment (AncSZ) | phosphorylation enrichment (FGFR1) | phosphorylation enrichment (Hck) | phosphorylation enrichment (c-Abl (mouse)) | phosphorylation enrichment (c-Src) | phosphorylation enrichment (Jak2) | phosphorylation enrichment (Fer (mouse)) | phosphorylation enrichment (EPHB2)
18 | EKLQKYYRQNP [EHHADH_Y682] | 0.746 | 0.548 | 0.927 | 0.568 | 0.667 | 0.497 | 0.391 | 0.371 | 0.523 | 0.509 | 0.408 | 0.581 | 0.428 | 0.55 | 0.367 | 0.543
19 | DVELLYPLKEK [EPHX1_Y283_V285L] | 0.787 | 0.448 | 0.893 | 0.395 | 1 | 0.751 | 0.484 | 0.426 | 1.08 | 0.452 | 0.495 | 0.695 | 0.439 | 0.866 | 0.422 | 0.438
20 | KGEDFYCVTCH [FHL1_Y149] | 0.842 | 0.962 | 1.19 | 0.696 | 1.12 | 0.775 | 0.797 | 0.597 | 1.09 | 0.579 | 0.801 | 0.675 | 0.613 | 0.933 | 0.504 | 0.569
21 | IMITGYLLLFR [INSR_Y87_D86G] | 1.83 | 0.899 | 2.37 | 0.521 | 1.4 | 0.866 | 0.63 | 0.668 | 1.19 | 0.721 | 0.57 | 1.13 | 0.419 | 1.02 | 0.593 | 0.547
22 | VKFGAYINDFK [GLB1_Y488_N484K_YF] | 1.06 | 1.3 | 4.55 | 0.596 | 1.02 | 0.879 | 0.431 | 0.412 | 0.839 | 0.466 | 0.523 | 0.737 | 0.468 | 1.05 | 0.406 | 0.572
23 | FFPANYVAPMT [GRAP2_Y324_L319F] | 0.883 | 0.6 | 0.814 | 4.84 | 0.826 | 0.646 | 0.471 | 0.768 | 0.924 | 0.65 | 0.469 | 1.36 | 0.449 | 0.865 | 0.41 | 2.17
24 | EYQLPYYNMVP [BMPR1A_Y457] | 1.87 | 3.74 | 9.58 | 2.81 | 1.12 | 11.9 | 3.83 | 7.06 | 6.15 | 14.1 | 3.23 | 3 | 5.13 | 9.58 | 5.56 | 3.64
25 | MFFSKYDRDND [FGB_Y408_T407K] | 0.801 | 0.447 | 1.07 | 0.493 | 1.01 | 0.66 | 0.501 | 0.486 | 0.817 | 0.47 | 0.589 | 0.717 | 0.426 | 0.845 | 0.51 | 0.488
26 | LFSNAYLSDLA [ALDH1A1_Y119_N121S_YF] | 0.601 | 0.36 | 0.783 | 2.12 | 2.92 | 1.42 | 1.23 | 1.81 | 2.21 | 2.39 | 0.974 | 2.14 | 2.79 | 2.06 | 1.31 | 1.15
27 | GFPVHYTGVSN [DNMT3B_Y815_D817G] | 2.09 | 1.06 | 0.878 | 0.38 | 0.598 | 0.413 | 0.359 | 0.361 | 0.545 | 0.392 | 0.438 | 0.608 | 0.358 | 0.424 | 0.453 | 0.424
28 | RLVVVYPWTQR [HBB_Y36_L33V] | 1.5 | 0.954 | 1.45 | 0.575 | 1.17 | 1.1 | 0.771 | 0.727 | 1.07 | 0.491 | 0.646 | 0.846 | 0.709 | 1.2 | 0.652 | 1.23
29 | AVDVTYDGHPV [FLNB_Y1020] | 0.476 | 0.444 | 0.803 | 1.09 | 0.982 | 0.63 | 2.3 | 0.429 | 1.11 | 0.497 | 2.78 | 0.705 | 2.55 | 0.724 | 0.925 | 3.74
30 | QEIATHRRLLE [KRT14_Y415_Y415H] | 0.722 | 0.543 | 0.978 | 0.403 | 1.06 | 1.09 | 0.576 | 0.69 | 0.692 | 0.529 | 0.508 | 0.695 | 0.43 | 0.575 | 0.711 | 0.469
31 | VNLVLYLSIAK [FBXO15_Y496] | 0.388 | 0.426 | 0.829 | 0.438 | 1.73 | 0.867 | 0.462 | 0.572 | 1.13 | 0.581 | 0.527 | 1.25 | 0.512 | 1.28 | 0.443 | 0.628
32 | FNNFGYGSDGF [HNRNPH3_Y161_N163S_YF] | 0.685 | 0.386 | 0.823 | 0.527 | 0.962 | 0.593 | 0.442 | 0.455 | 0.856 | 0.499 | 0.57 | 0.727 | 0.453 | 0.829 | 0.455 | 0.592
33 | DLREKYMDCGG [HAP1_Y440] | 0.596 | 0.668 | 0.938 | 0.716 | 1.1 | 0.726 | 0.499 | 0.442 | 0.919 | 0.507 | 0.55 | 0.738 | 0.389 | 0.913 | 0.586 | 0.625
